The labels stand for the following.
B1: POU domain, class 3, transcription factor 2, residues 356 to 411; numbered along this chain, P20265 (parent)
chain: KKRTSIEVSVKGALESHFLKCPKPSAQEITSLADSLQLEKEVVRVWFCNRRQKEKR

± gives the uncertainty stated by the source.

This data set covers variants of B1. Briefly: abundance fitness (aPCA) (normalised: wild type 0, dead -1); higher = more abundant; growth selection in yeast, the domain comes from the species named. Particulars: Homo sapiens.
Take KKRTSIEVSVKGALESHFLKCPKPSAQEITSLADSLQLEKEVNRVWFCNRRQKEKR [V43N]: the abundance fitness is -0.889 ± 0.34.

As to KKRTSIEVSVKGALESHFLKCPKPSAQEITSLADSLQLEKEVPRVWFCNRRQKEKR [V43P], the abundance fitness was -0.891 ± 0.17.

For KKRTSIEVSVKGALESHFLKCPKPSAQEITSLADSLQLEKEVGRVWFCNRRQKEKR [V43G], the abundance fitness was -0.906 ± 0.12.

As for KKRTSIEVSVKGALESHFLKCPKPSAQEITSLADSLQLEKEVQRVWFCNRRQKEKR [V43Q], the abundance fitness was -0.877 ± 0.19.

Consider KKRTSIEVSVKGALESHFLKCPKPSAQEITSLADSLQLEKEVARVWFCNRRQKEKR [V43A], for which the abundance fitness was -0.615 ± 0.089.

KKRTSIEVSVKGALESHFLKCPKPSAQEITSLADSLQLEKEVRRVWFCNRRQKEKR [V43R]: the abundance fitness is -0.95 ± 0.11.

Turning to KKRTSIEVSVKGALESHFLKCPKPSAQEITSLADSLQLEKEVYRVWFCNRRQKEKR [V43Y], the abundance fitness was -0.955 ± 0.2.

Take KKRTSIEVSVKGALESHFLKCPKPSAQEITSLADSLQLEKEVIRVWFCNRRQKEKR [V43I]: the abundance fitness is -0.197 ± 0.12.

For the variant KKRTSIEVSVKGALESHFLKCPKPSAQEITSLADSLQLEKEVWRVWFCNRRQKEKR [V43W], the abundance fitness is -0.793 ± 0.16.

For KKRTSIEVSVKGALESHFLKCPKPSAQEITSLADSLQLEKEVLRVWFCNRRQKEKR [V43L], the abundance fitness was -0.361 ± 0.068.

KKRTSIEVSVKGALESHFLKCPKPSAQEITSLADSLQLEKEVMRVWFCNRRQKEKR [V43M]: the abundance fitness is -0.944 ± 0.16.

As for KKRTSIEVSVKGALESHFLKCPKPSAQEITSLADSLQLEKEVTRVWFCNRRQKEKR [V43T], the abundance fitness is -0.841 ± 0.12.

For KKRTSIEVSVKGALESHFLKCPKPSAQEITSLADSLQLEKEVHRVWFCNRRQKEKR [V43H], the abundance fitness was -0.938 ± 0.2.

Regarding KKRTSIEVSVKGALESHFLKCPKPSAQEITSLADSLQLEAEVVRVWFCNRRQKEKR [K40A], the abundance fitness is -0.017 ± 0.097.

As to KKRTSIEVSVKGALESHFLKCPKPSAQEITSLADSLQLEQEVVRVWFCNRRQKEKR [K40Q], the abundance fitness was found to be 0.078 ± 0.12.

For KKRTSIEVSVKGALESHFLKCPKPSAQEITSLADSLQLEREVVRVWFCNRRQKEKR [K40R], the abundance fitness amounted to 0.017 ± 0.066.

Take KKRTSIEVSVKGALESHFLKCPKPSAQEITSLADSLQLEGEVVRVWFCNRRQKEKR [K40G]: the abundance fitness was -0.085 ± 0.078.

Turning to KKRTSIEVSVKGALESHFLKCPKPSAQEITSLADSLQLEVEVVRVWFCNRRQKEKR [K40V], the abundance fitness stood at 0.007 ± 0.11.

For KKRTSIEVSVKGALESHFLKCPKPSAQEITSLADSLQLEWEVVRVWFCNRRQKEKR [K40W], the abundance fitness is -0.178 ± 0.1.

As to KKRTSIEVSVKGALESHFLKCPKPSAQEITSLADSLQLENEVVRVWFCNRRQKEKR [K40N], the abundance fitness is 0.021 ± 0.19.

Turning to KKRTSIEVSVKGALESHFLKCPKPSAQEITSLADSLQLEPEVVRVWFCNRRQKEKR [K40P], the abundance fitness was -0.027 ± 0.12.

Regarding KKRTSIEVSVKGALESHFLKCPKPSAQEITSLADSLQLEFEVVRVWFCNRRQKEKR [K40F], the abundance fitness was -0.004 ± 0.13.

As to KKRTSIEVSVKGALESHFLKCPKPSAQEITSLADSLQLESEVVRVWFCNRRQKEKR [K40S], the abundance fitness was -0.036 ± 0.085.

As for KKRTSIEVSVKGALESHFLKCPKPSAQEITSLADSLQLECEVVRVWFCNRRQKEKR [K40C], the abundance fitness was -0.153 ± 0.095.

Consider KKRTSIEVSVKGALESHFLKCPKPSAQEITSLADSLQLEMEVVRVWFCNRRQKEKR [K40M], for which the abundance fitness is -0.013 ± 0.17.

As to KKRTSIEVSVKGALESHFLKCPKPSAQEITSLADSLQLELEVVRVWFCNRRQKEKR [K40L], the abundance fitness was -0.147 ± 0.083.

Regarding KKRTSIEVSVKGALESHFLKCPKPSAQEITSLADSLQLEDEVVRVWFCNRRQKEKR [K40D], the abundance fitness is -0.344 ± 0.16.

For the variant KKRTSIEVSVKGALESHFLKCPKPSAQEITSLADSLQLEHEVVRVWFCNRRQKEKR [K40H], the abundance fitness came to 0.132 ± 0.21.

KKRTSIEVSVKGALESHFLKCPKPSAQEITSLADSLQLEEEVVRVWFCNRRQKEKR [K40E]: the abundance fitness came to 0.096 ± 0.12.

In the case of KKRTSIEVSVKGALESHFLKCPKPSAQEITSLADSLQLEKRVVRVWFCNRRQKEKR [E41R], the abundance fitness is -0.337 ± 0.078.

In the case of KKRTSIEVSVKGALESHFLKCPKPSAQEITSLADSLQLEKHVVRVWFCNRRQKEKR [E41H], the abundance fitness was -0.168 ± 0.19.

For KKRTSIEVSVKGALESHFLKCPKPSAQEITSLADSLQLEKYVVRVWFCNRRQKEKR [E41Y], the abundance fitness was -0.489 ± 0.18.

Regarding KKRTSIEVSVKGALESHFLKCPKPSAQEITSLADSLQLEKGVVRVWFCNRRQKEKR [E41G], the abundance fitness was -0.408 ± 0.085.

In the case of KKRTSIEVSVKGALESHFLKCPKPSAQEITSLADSLQLEKQVVRVWFCNRRQKEKR [E41Q], the abundance fitness is -0.26 ± 0.14.

Turning to KKRTSIEVSVKGALESHFLKCPKPSAQEITSLADSLQLEKAVVRVWFCNRRQKEKR [E41A], the abundance fitness is -0.238 ± 0.12.

With KKRTSIEVSVKGALESHFLKCPKPSAQEITSLADSLQLEKSVVRVWFCNRRQKEKR [E41S], the abundance fitness was -0.256 ± 0.086.

Take KKRTSIEVSVKGALESHFLKCPKPSAQEITSLADSLQLEKNVVRVWFCNRRQKEKR [E41N]: the abundance fitness was -0.069 ± 0.18.

KKRTSIEVSVKGALESHFLKCPKPSAQEITSLADSLQLEKFVVRVWFCNRRQKEKR [E41F]: the abundance fitness is -0.723 ± 0.22.

For the variant KKRTSIEVSVKGALESHFLKCPKPSAQEITSLADSLQLEKMVVRVWFCNRRQKEKR [E41M], the abundance fitness was -0.791 ± 0.2.

For KKRTSIEVSVKGALESHFLKCPKPSAQEITSLADSLQLEKPVVRVWFCNRRQKEKR [E41P], the abundance fitness was -0.697 ± 0.14.

As to KKRTSIEVSVKGALESHFLKCPKPSAQEITSLADSLQLEKDVVRVWFCNRRQKEKR [E41D], the abundance fitness is -0.114 ± 0.14.

Turning to KKRTSIEVSVKGALESHFLKCPKPSAQEITSLADSLQLEKCVVRVWFCNRRQKEKR [E41C], the abundance fitness was -0.558 ± 0.12.

For the variant KKRTSIEVSVKGALESHFLKCPKPSAQEITSLADSLQLEKVVVRVWFCNRRQKEKR [E41V], the abundance fitness was -0.596 ± 0.1.

On to KKRTSIEVSVKGALESHFLKCPKPSAQEITSLADSLQLEKWVVRVWFCNRRQKEKR [E41W], for which the abundance fitness was -0.494 ± 0.11.

With KKRTSIEVSVKGALESHFLKCPKPSAQEITSLADSLQLEKTVVRVWFCNRRQKEKR [E41T], the abundance fitness was -0.303 ± 0.13.

Take KKRTSIEVSVKGALESHFLKCPKPSAQEITSLADSLQLEKKVVRVWFCNRRQKEKR [E41K]: the abundance fitness is -0.446 ± 0.17.

Consider KKRTSIEVSVKGALESHFLKCPKPSAQEITSLADSLQLEKLVVRVWFCNRRQKEKR [E41L], for which the abundance fitness is -0.881 ± 0.1.

Source of the values: the Human Domainome abundance scans (Beltran et al. 2025).
